Data: paper PMC5102827 (Oncogene, 2016)

Columns and labels:
[1] = target: NOTCH3 on the surface of cells expressing NOTCH3 (Homo sapiens, UniProt Q9UM47); assay: flow cytometry on cells
[2] = target: recombinant NOTCH3 protein (Homo sapiens, UniProt Q9UM47); assay: SPR

B1: MOR20358 anti-NOTCH3 NRR antibody (antibody, V domains shown)
VH: QVQLVQSGAEVKKPGSSVKVSCKASGGTFRTYAMHWVRQAPGQGLEWMGGIVPYHGITDYAQKFQGRVTITADESTSTAYMELSSLRSEDTAVYYCARDDYSTYAFAYWGQGTLVTVSS
VL: DIQMTQSPSSLSASVGDRVTITCRASQSIASYLAWYQQKPGKAPKLLIYDASNLQSGVPSRFSGSGSGTDFTLTISSLQPEDFATYYCQQAYKTPYTFGQGTKVEIK
EC50 [1]: 0.14 nM
Kd [2]: 0.6 nM
